Here are results for 28 sequences from a protein production outcome set (Wang et al. 2014).

This data set can be described thus: label from the status in PepcDB records.
As for “MYLQCYINEKGEKVYTTKKESPLGLATESAHPARFSPDDKYSKQRVLLKKRFGLLPTQNAPLQY”, the protein production entry is reported as “failed”.
As to “MYMAQPGHIDHIKQINAGRVYKLIDQKGPISRIDLSKESELAPASITKITRELIDAHLIHETTVQEAISRGRPAVGLQTNNLGWQFLSMRLGRGYLTIALHELGGEVLIDTKIDIHEIDQDDVLARLLFEIEEFFQTYAAQLDRVTSIAITLPGLVNSEQGIVLQMPHYNVKNLALGPEIYKATGLPVFVANDTRAWALAEKLFGHSQDVDNSVLISIHHGLGAGIVLDGRVLQGRHGNIGELGHIQIDPQGKRCHCGNYGCLETVASSQAIRDQVTARIQAGEPSCLATVEEISIEDICAAAADGDPLAVDVIQQLGRYLGAAIAIVINLFNPEKILIGGVINQAKSILYPSIEQCIREQSLPVYHQDLKLVESRFYKQATMPGAALIKQALYDGLLLMKVVEG”, the protein production entry is given as “not failed”.
As for “MYPKQFLKFGETSLFQETVLRCLEVSDISEVFVVTNEAQKFFVIGQIKEAGYSIPPENILIEPEGKNTLPAIFFGMKEIEKKFGDSIVGVFSSDHVLDRAAMATISSAENLASDYLVTFGVVPTFPHTGYGYIKASEACSPGYRVSEFREKPDFETAKKYIEEGCLWNSGMFLFETRLFFEEARKHAPSVYGCFEKEGDINQIYECVDNISIDYGIMEKSDKVAVVRLDHKWSDLGNFAAIYDELEKDSVGNVIHDCDPMLLNSDGNLVYSRCGKIVSLIDVKDMVVVDTSDALLICPKSSSQKVKEIVSELKGRKDERAFIGQTVYRPWGSYTLLDASPGHKIKNITVLSDHKLSLQLHYHRSEHWVVVKGMACVEVDGKQFFLGPGESTFIRAGQKHRLSNPGKLPLEIIEVQLGELVDEEDIVRFDDVYGRRLEHHHHHH”, the entry is “not failed”.
Take “MYPVDLHMHTVASTHAYSTLSDYIAQAKQKGIKLFAITDHGPDMEDAPHHWHFINMRIWPRVVDGVGILRGIEANIKNVDGEIDCSGKMFDSLDLIIAGFHEPVFAPHDKATNTQAMIATIASGNVHIISHPGNPKYEIDVKAVAEAAAKHQVALEINNSSFLHSRKGSEDNCREVAAAVRDAGGWVALGSDSHTAFTMGEFEECLKILDAVDFPPERILNVSPRRLLNFLESRGMAPIAEFADL”: the protein production entry was “not failed”.
In the case of “MYQKFKGGDLMIHGGDIYTEGVFKGRELLDYSSNINPLGIPKSFLNNIDEGIKNLGVYPDVNYRRLNKSIENYLKLKDIGIVLGNGASEIIELSISLFEKILIIVPSYAEYEINAKKHGVSVVFSYLDENMCIDYEDIISKIDDVDSVIIGNPNNPNGGLINKEKFIHVLKLAEEKKKTIIIDEAFIEFTGDPSSSFVGEIKNYSCLFIIRAMTKFFAMPGIRFGYGITNNKEIAAKIKAKQNPWNINCFAEMAAINCLKDTNYIEESLLWIKKERKRFIEELNKIGFIKRVFSPHANFVLCRLENISGEKLYDSLLKEDIVIRRCCNFIGLDDSFVRFAIKDEKKNTKFLRALKGVENNL” it was “not failed”; in that of “MYQVVASDLDGTLLSPDHFLTPYAKETLKLLTARGINFVFATGRHYIDVGQIRDNLGIRSYMITSNGARVHDSDGQQIFAHNLDRDIAADLFEIVRNDPKIVTNVYREDEWYMNRHRPEEMRFFKEAVFNYKLYEPGELDPQGISKVFFTCEDHEHLLPLEQAMNARWGDRVNVSFSTLTCLEVMAGGVSKGHALEAVAKMLGYTLSDCIAFGDGMNDAEMLSMAGKGCIMANAHQRLKDLHPELEVIGSNADDAVPRYLRKLYLD”, “not failed”; in that of “MYRDRIRLPSLMSKVMSAADAAALIEDGMTVGMSGFTRAGEAKAVPHALAERAKVTPLKISLMTGASLGNDLDKQLTESGVLSRRMPFQVDSTLRKAINNGTVMFIDQHLSDTVELLRNRQIKAVDLAVIECVAITEEGHLVLSTSVGNSASFAILAKQVIVEINLSQPLELEGLHDIYIPSYRPTRLPIPVLEADSRIGSHAVKIDPAKIVGIVISNQPDSPSTVTPPDADTQAIANHLVEFFKKEVREDRLTDKLMPLQAGIGNIANAVMHGLLESPFTDLTMYSEVLQDSTFDLFDAGKLTFASGSSMTLSAAKHAEVFADFNRYKSRLVLRPQEISNHPEVIRRLGIIGINTALEFDLYGNVNSTHICGTRMMNGIGGSGDFSRNAHLAIFVTKSIAKGGAISSVVPMVSHVDHTEHDVDILVTEQGLADLRGLAPRERARVIIDNCVHADYRDALNAYFDAACALGGHTPHILREALSWHINLEENGRMLPT”, “failed”.
In the case of “MYTRLLVVSLACLLFGVSAFAQPMAPVPDAPLRNAALRMKDKDYRAVRDELRSVPPSPERTFLDGVAARRLEQWPEASELLGVAAKDLPLLADYALFWQAEALMAATRYDEAEEVLQRLVGTWPDSPTLRKARMLLADAQFARKEYRQALASYIRFIELYPSGTDSVTANLKTALCREGLDDPRRAVQELRAIWLAYPASPVAETAEQELKRLEALGFPAVPLTPDELLKRGTTLYNLGKYERALAVFNTIPLKEQLAGFNDRVALKIGETLLKLRRYKDAARTFSSLIEREPKREIADEARFLLARAQNKAGNDDEAFLGFLKLAETAPTSEWADNALLEAAFVRKFQGRYADQLAVLEKLLTTYPGTKLKPRAMWETAWARYNTGDYRSAAESFRLLTASADYRERALYWHGRSLQRIGEETVARQSFAMLAEEYPFSFYTFTATDPAPQEGAIPLIVHDLRQTISPPAGHERARALIAMGLHDQARSELSIARKNGSSRGKGLLGIARLYLEMNDYSSAAAALRGEQPRRMDGETATTWGLLYPRGFSDSVAAEANRHTIPEELIYGLIKAESGFSPVALSPVGAVGLMQLMPSTAKGMVNGSSPANGISARLTDPTFNVGLGVRHLKDLLKQYNGNVVSAVAAYNAGSRPVDRWRRSLAGLREDEFIENIPYYETREYVKKVLTFAEVYRRLYRPAAPALAFLPQVSAPEPPQPAPTNNAPPTAALASPPETSALTAPVRQQP” it was “failed”; in that of “MYVTIVYASVKTDKTEAFKEATRMNHEQSIREPGNMRFDILQSADDPTRFVLYEAYKTRKDAAAHKETAHYLTWRDTVADWMAEPRKGVIYGGLYPTGDD”, “not failed”.
As for “MYYKFGEIKNKIISFNGFEFKVSAMKKHDGISIQVKDMNNVPLKSFHVVDLSELYIAMDAMRDVINEWIEENTDERDRLINLVMRW”, the entry is “failed”.
As for “NANLDPKTRVLEHRLLAASSAIAEKLGVSAGDEVLLIRRLRSTGDIPVAILENYLPPAFNDVSLDELEKGGLYDALRSRGVVLKIANQKIGARRAVGEESTLLDIEDGGPLLTVERVALDNSGQVIELGSHCYRPDMYNFETTLVAR”, the protein production entry is recorded as “not failed”.
In the case of “NAQARFSQNLLDQGSHPTSEKLLSVLRPASGHVADALGITEGENVIHLRTLRRVNGVALCLIDHYFADLTLWPTLQRFDSGSLHDFLREQTGIALRRSQTRISARRAQAKECQRLEIPNMSPLLCVRTLNHRDGESSPAEYSVSLTRADMIEFTMEH” it was “not failed”; in that of “NCRLFIGGIPKMKKREEILEEIAKVTEGVLDVIVYASAADKMKNRGFAFVEYESHRAAAMARRKLMPGRIQLWGHQIAVDWAEPEIDVDEDVMETV”, “not failed”.
As for “NDAIPTIFIHGYRGTDRSLHGMIRRFDQKYNWGTESLTVNVSPDGSISTTGTYSKNEKNPLINIVFEDNRATLPQQSMWTKKIMSYLQKNYDIKKFNAIGHSMGGGAWVSYLASYEKNKSYPQVNKIVFLAVPFYPEEYVNGDQQVDIKNANNVHAKFAQKMAKVLPDNTEIMIIGGDLEDGSNSDGEVKLNSVLYGQKLFAHQKVITHVIKGPKATHSSMHESTVVDKYVGQFLWGQK”, the entry is “failed”; as for “NEHEYAYIMQTSGSTGKPKRIAVSYSNLHCYISQIDKLFPLNAQDRVGQYSDLTFDLSVHDIFYSLISGACLYVVPELAKLSPAEFIHHHQLTVWLSVPTVIELALQRQTLTPHSLPSLRLSFFCGQALLHDLAEQWQQATQQPVINLYGPTECTIAVTYHRFVAHSGMASV”, “failed”.
In the case of “NEVDDMDTSDTQWGWFYLAECGKWHMFQPDTNSQCSVSSEDIEKSFKTNPCGSISFTTSKFSYKIDFAEMKQMNLTTGKQRLIKRAPFS” it was “not failed”; in that of “NGGIPHDNLVLIRMKPDENGRFGFNVKGGYDQKMPVIVSRVAPGTPADLCVPRLNEGDQVVLINGRDIAEHTHDQVVLFIKASCERHSGELMLLVRPNAVYDVVEE”, “not failed”; in that of “NGKIALEEHFATEETLMDSAGFVPDKDWPELRSRLLDIQDRRVRLMDEHGIETMILSLNAPAVQAIADSTRANETARRANDFLAEQVAKQPTRFRGFAALPMQDPELAARELERCVKELGFVGALVNGFSQDNRSAVPLYYDMAQYWPFWETVQALDVPFYLHPRNPLPSDARIYDGHAWLLGPTWAFGQETAVHALRLMGSGLFDKYPALKIILGHMGEGLPYSMWRIDHRNAWIKTTPKYPAKRKIVDYFNENFYLTTSGNFRTQTLIDAILEIGADRILFSTDWPFENIDHAADWFENTSISEADRKKIGWGNAQNLFKLNR”, “not failed”.
Regarding “NNELTQFLPRIVTLKKPPGAQLGFNIRGGKASQLGIFISKVIPDSDAHRAGLQEGTXVLAVNDVDFQDIEHSKAVEILKTAREISMRVRFF”, the protein production entry is listed as “not failed”.
In the case of “NPNPISIPIDLSQAGSVVEKEVKIEESWSYHLILQFAVHDRKEDGGLDGKRVWKFLGFNSYDPRDGKQVGYVDYRLAKSELGDLIDETYDCDGTVVPIKITIHQINQDNTKKLIADNLYMTKGNGSGAYTRDITTISLDKGKYIFRIENIEAFSEMIGRKVDFTIYINKRDK” it was “not failed”.
In the case of “NSNTLSQIQLNEQSCLSQVVNNLYRLHNSEFVFRNVFSVFDEFRQYFSLLENKSAFYQADSRMDKLSAVFWQFEEINKEVILRPCHNDLVPENMLLQDDRLFFIDWEYSGLNDPLFDIATIIEEAHLSKEAADFLLETYCNQTNKYHKTEFQIAHKRLKIHRFCQNVLWFLWTKVKEEHGENFGDYALKRLDAAFKLLEELP” it was “failed”; in that of “NSSKSLEAELVRDRQELIDARKKELKAYMMMGVTAIKPLYDSDVNGSNKQAAKEILKAMRFESDGYFFAYDSQGINTLHAIKPSLEGKNLYDLKDENGVAVIAGLIDASQKGDGFLYFSWHKPTINAQAPKLGYAEYLQKWDWVLGTGIYIDDIDQQVAMQRELRTQELNQHT”, “not failed”; in that of “NTKQLRFEDVVNQSSPKNCTVYCGGIASGLTDQLMRQTFSPFGQIMEIRVFPEKGYSFVRFSTHESAAHAIVSVNGTTIEGHVVKCYWGKESPDMT”, “not failed”.
As for “NTRLRRTKEVNEILGIDPVDKNLLVNQFVKWDPKEDKHIEVSMPKKLEKMADFLGVSVQEVYDEMLSRKRYLELMLKRGIRNYKEVTRYIHAYYRNPELAMTKME”, the entry is “failed”.
As for “PAAEAAPMSLAIHSTTGTRYDLAVPPDETVEGLRKRLSQRLKVPKERLALLHKDTRLSSGKLQEFGVGDGSKLTLVPTVEAGLMSQASRPEQSVMQ”, the protein production entry is reported as “failed”.
As to “PAMICRYRPDLTLTFGNRPLAAYLECAPEELPGSNLGQWLSAEQREGFERRLKLLSPEYPVSTAEINLQLPGREHAWWVWSDRGVFDEQGQLLEIQAVGRDNTEVRRAQQQLTQSAKMATLGEMATGLAHEINQPLNVMRMAIVNVLKRLGNG”, the protein production result is reported as “failed”.
In the case of “PARIDTLEIKLLFAGDIMTHGPQIESAKCEGGRVYDFSSSFDTLASRIGAADLAIGNLETTFAGAPYSGYPTFSSPDAMGEALKNAGFDVLTTANNHTADKGKKGIIRTLDMLDSLGIAHTGSYRDIFDRDKMTPLILEVKGVRIAILAYTYGTNGMPVPAPTWVDPIDTVMIKKDLLRADSLGADYRIVQIHWGIEYRKEPDSEQLELARKLHRYGADAIIGSHPHVV”, the protein production entry is recorded as “failed”.
Regarding “PDADPVEIENRIIELCHQFPHGITDQVIQNEMPHIEAQQRAVAINRLLSMGQLDLLRSNTGLLYRIKD”, the protein production entry is “not failed”.
